T1: IL-4 (Homo sapiens (Human), UniProt P05112 25-153)
T1 sequence: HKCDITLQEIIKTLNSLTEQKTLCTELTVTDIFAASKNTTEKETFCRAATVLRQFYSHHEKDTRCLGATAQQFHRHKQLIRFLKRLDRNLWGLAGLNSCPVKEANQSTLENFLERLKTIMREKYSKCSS


Columns and labels:
[1] = molecular target: T2, hTSLP-His (human, UniProt Q969D9 29-159, limits assumed); experiment: competition ELISA, TSLP-R coated, soluble TSLP-R as competitor for hTSLP
T2 construct: bought; also called hTSLP (ACROBiosystems TSP-H52Hb); not shown: His tag

[2] = molecular target: T3, recombinant human IL-13 (human, UniProt P35225 35-146); experiment: cell-based or functional assay
[3] = molecular target: T4, human TSLP (human, UniProt Q969D9 29-159); experiment: ELISA, ligand coated, IgG 1-1000 nM
T4 construct: also called hTSLP; rhTSLP

[4] = molecular target: T5, recombinant cynomolgus monkey IL-13 (cynomolgus monkey, UniProt Q0PW92 21-132); experiment: ELISA, ligand coated, IgG 1-1000 nM
T5 construct: bought; also called rc-IL-13; cIL-13

[5] = molecular target: T6, cynomolgus monkey (cyno) TSLP (cynomolgus monkey, UniProt A0A7N9CAT7 29-159); experiment: ELISA, ligand coated, IgG 1-1000 nM
T6 construct: also called cTSLP; cynomolgus TSLP

[6] = molecular target: T7, IL-2 (Homo sapiens (Human), UniProt P60568 21-153); experiment: specificity ELISA, 250 ng ligand coated
[7] = molecular target: T3, recombinant human IL-13; experiment: SPR (Biacore T200), antibody captured, hIL-13 analyte 20-0.6 nM
Method: Recombinant cyno IL-13 (rc-IL-13) was tested at 200 nM with a 2-fold dilution (FIGS. 5C-5D).

[8] = molecular target: BSA (UniProt P02769 25-607); experiment: ELISA, 250 ng coated ligand per well, 100 nM IgG, anti-human Fc-HRP
[9] = molecular target: T2, hTSLP-His; experiment: cell-based or functional assay
[10] = molecular target: T1, IL-4; experiment: ELISA, 250 ng coated ligand per well, 100 nM IgG, anti-human Fc-HRP
[11] = molecular target: T7, IL-2; experiment: as above
[12] = molecular target: T4, human TSLP; experiment: SPR
[13] = molecular target: T3, recombinant human IL-13; experiment: SPR
[14] = molecular target: T2, hTSLP-His; experiment: competition ELISA, TSLP-R-Fc coated, 3 nM hTSLP-His pre-mixed with IgG
From the text: Wells were then washed three times with TBS 0.05% tween (TBS-T) and blocked with TBS-T containing 2% BSA (w/v).

T3 sequence (P35225 35-146 limits assumed): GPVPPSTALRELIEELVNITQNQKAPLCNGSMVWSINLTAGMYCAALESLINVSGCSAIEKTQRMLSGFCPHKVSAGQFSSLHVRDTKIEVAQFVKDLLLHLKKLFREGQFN
T5 sequence (Q0PW92 entry or part of it): as the sequence (P35225 35-146 limits assumed) above, with G1S, R10K, M42V, S67N, H83R, L100V counted along it
T6 sequence (A0A7N9CAT7 entry or part of it): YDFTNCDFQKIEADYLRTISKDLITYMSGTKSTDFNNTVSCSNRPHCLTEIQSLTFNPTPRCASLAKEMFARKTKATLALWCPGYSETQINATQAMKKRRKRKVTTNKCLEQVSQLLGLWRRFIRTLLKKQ
Chain of BSA (P02769 25-607 limits assumed): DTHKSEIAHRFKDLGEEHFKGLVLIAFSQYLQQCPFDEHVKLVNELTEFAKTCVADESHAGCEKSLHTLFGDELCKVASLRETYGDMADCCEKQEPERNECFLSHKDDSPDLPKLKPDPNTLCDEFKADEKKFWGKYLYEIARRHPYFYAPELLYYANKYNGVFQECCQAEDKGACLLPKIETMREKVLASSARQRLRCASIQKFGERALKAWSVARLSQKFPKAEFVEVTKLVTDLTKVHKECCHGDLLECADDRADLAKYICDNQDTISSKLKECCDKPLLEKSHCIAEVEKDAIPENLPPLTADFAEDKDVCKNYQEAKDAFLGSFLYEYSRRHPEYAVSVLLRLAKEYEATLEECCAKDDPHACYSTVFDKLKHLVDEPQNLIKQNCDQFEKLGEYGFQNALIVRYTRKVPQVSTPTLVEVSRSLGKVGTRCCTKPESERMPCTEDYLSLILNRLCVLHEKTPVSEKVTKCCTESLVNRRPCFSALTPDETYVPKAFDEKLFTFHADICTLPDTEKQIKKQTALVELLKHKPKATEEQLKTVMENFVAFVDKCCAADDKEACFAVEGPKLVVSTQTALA
T7 sequence (P60568 21-153 limits assumed): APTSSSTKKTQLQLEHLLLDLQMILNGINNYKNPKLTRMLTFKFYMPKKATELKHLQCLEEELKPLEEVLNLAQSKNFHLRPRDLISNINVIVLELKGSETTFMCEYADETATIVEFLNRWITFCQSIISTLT

Row | IC50 [1] | IC50, HEK-Blue IL-4/IL-13 reporter (0.4 nM rh-IL-13) [2] | EC50 [3] | EC50 [4] | EC50 [5] | binding result [6] | Kd [7] | koff [7] | kon [7] | binding result [8] | IC50, TSLP dependent pSTAT5 activation in MUTZ5 cells (14 pM TSLP) [9] | binding result [10] | binding result [11] | Kd [12] | koff [12] | kon [12] | Kd [13] | koff [13] | kon [13] | IC50 [14] | Binder
1 | 3 nM |  |  |  |  |  |  |  |  |  |  |  |  |  |  |  |  |  |  |  | TSLP-R-Fc tag (Fc fusion, UniProt Q9HC73 23-231, looked up, bought; also called TSLP receptor; not shown: Fc tag) QGGAAEGVQIQIIYFNLETVQVTWNASKYSRTNLTFHYRFNGDEAYDQCTNYLLQEGHTSGCLLDAEQRDDILYFSIRNGTHPVFTASRWMVYYLKPSSPKHVRFSWHQDAVTVTCSDLSYGDLLYEVQYRSPFDTEWQSKQENTCNVTIEGLDAEKCYSFWVRVKAMEDVYGPDTYPSDWSEVTCWQRGEIRDACAETPTPPKPKLSK
2 |  | 25 nM | 12.8 nM | 1.5 nM | 148 nM | no binding (tested: 100 nM IgG) | 0.903 nM | 0.0036 s⁻¹ | 4.07e+06 M⁻¹ s⁻¹ | no binding (tested: 100 nM) |  |  |  |  |  |  |  |  |  |  | BDG33.025 (antibody, V domains shown, standard IgG; also called BGD33.025; BDG33.0025) VH: QMQLVESGGGVVQPGRSLRLSCAASGFTFRTYGMHWVRQAPGKGLEWVADIWYDGSNKHYADSVKGRFTITRDNSKNTLNLQMNSLRAEDTAVYYCARAPQWYLVAEPFDLWGQGTMVTVSS VL: SYVLTQPPSVSVAPGQTARITCGGNLIGSKLVHWYQQKPGQAPVLVVYDDSDRPSLIPERFSGSNSGNTATLTISRVEAGDEADYYCQVWDSSSDGVVFGGGTKLTVL
3 |  | 1.3 nM | 2.5 nM | 7.1 nM | 8.2 nM |  | 3.65 nM | 0.0157 s⁻¹ | 4.31e+06 M⁻¹ s⁻¹ | no binding (tested: 100 nM) | 13 pM | no binding (tested: 100 nM) | no binding (tested: 100 nM) | 0.0625 nM | 6.84e-05 s⁻¹ | 1.09e+06 M⁻¹ s⁻¹ | 3.01 nM | 0.00457 s⁻¹ | 1.52e+06 M⁻¹ s⁻¹ | 0.41 nM | BDG33.023 (antibody, V domains shown, standard IgG; also called BGD33.023; BDG33.0023) VH: QMQLVESGGGVVQPGRSLRLSCAASGFAFRTYGMHWVRQAPGKGLEWVAVIWYDGSNTHYADSVKGRFTITRDNSKNTLNLQMNSLRAEDTAVYYCARAPQWYLSAEAFDLWGQGTMVTVSS VL: SYVLTQPPSVSVAPGQTARITCGGNLIGSKLVHWYQQKPGQAPVLVVYDDSDRPSRIPERFSGSNSGNTATLTISRVEAGDEADYYCQVWDHSSDHVVFGGGTKLTVL

Reference: patent US20240059769A1 (BIOLOJIC DESIGN, published 2024)
